Where no end group is shown, it is not given here.
Target: bovine insulin (bovine, UniProt P01317 85-105; P01317 25-54)
Assay: ITC

Chain of bovine insulin (P01317 85-105, chain 1 of 2): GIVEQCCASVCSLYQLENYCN
Chain of bovine insulin (P01317 25-54, chain 2 of 2): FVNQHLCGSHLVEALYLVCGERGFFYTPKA

binding result | stoichiometry N [peptides per insulin] | Binder
binds |  | Ac-KVYYRYNGKVWWR (designed binder) [B2T_KV (N-KVYY-RYNGKVWWR-C), de novo designed 13-mer beta-hairpin peptide]
binds |  | Ac-DIFFRYNGKVWWR (designed binder) [B2T_FF (N-DIFF-RYNGKVWWR-C), de novo designed 13-mer beta-hairpin peptide]
 | 4 | Ac-DITTRYNGKVWWR (designed binder) [B2T_TT (N-DITTRYNGKVWWR-C), de novo designed 13-mer beta-hairpin peptide]

Source: paper PMC9052121 (RSC Advances, 2020)
